The experiment deals with gC1qR (C1QBP) on human T cells (human) (UniProt Q07021). As to the kind of experiment: cell-based or functional assay.

HCV core protein (Prospec HCV-011) yielded a PLA2G1B enzymatic activity on the membrane of CD4 T cells ([3H] arachidonic acid release) of 26 Fold. In the case of “Staphylococcus aureus protein A (Sigma P6031)” it was 3 Fold.

These data come from patent EP4115900A1.
